# Experimental data from patent US20180112000A1 (MILTENYI BIOTEC, published 2018).
# B1: chCD28 Fab (chimeric) (Fab, V domains shown)
# VH: QVQLKESGPGLVAPSQSLSITCTVSGFSLTSYGVHWVRQPPGKGLEWLGVIWAGGSTNYNSALMSRLSISKDNSKSQVFLKMNSLQTDDTAMYYCARDKRAPGKLYYGYPDYWGQGTTLTVSS
# VL: DIVLTQSPASLAVSLGQRATISCRASESVEYYVTSLMQWYQQKPGQPPKLLIYAASNVESGVPARFSGSGSGTDFSLNIHPVEEDDIAMYFCQQTRKVPSTFGGGTKLEIKR
# notes: Fab expressed in E. coli periplasm; not shown: Fabs were purified by IMAC
# B2: huCD28_v4 Fab (humanized) (Fab, V domains shown, not shown: small tags and cut ends)
# VH: QVQLQESGPGLVKPSETLSLTCTVSGFSLTSYGVHWIRQPPGKGLEWLGVIWAGGSTNYNSSLKSRVTISKDTSKNQVSLKLSSVTAADTAVYYCARDKRAPGKLYYGYPDYWGQGTTLTVSS
# VL: DIVMTQSPDSLAVSLGERATINCRASESVEYYVTSLMQWYQQKPGQPPKLLIYAASNVESGVPARFSGSGSGTDFTLTISPLQAEDVAVYYCQQTRKVPSTFGGGTKLEIKR
# notes: Humanized 15E8 Fab expressed in E. coli periplasm
# B3: huCD28_v1 Fab (humanized) (Fab, V domains shown, not shown: small tags and cut ends)
# VH: QVQLQESGPGLVKPSETLSLTCTVSGFSLTSYGVHWVRQPPGKGLEWLGVIWAGGSTNYNSALMSRLTISKDTSKNQVSLKLSSVTAADTAVYYCARDKRAPGKLYYGYPDYWGQGTTLTVSS
# VL: DIVMTQSPDSLAVSLGERATINCRASESVEYYVTSLMQWYQQKPGQPPKLLIYAASNVESGVPDRFSGSGSGTDFTLTISSLQAEDVAVYYCQQTRKVPSTFGGGTKLEIKR
# notes: as for B2
# B4: huCD28_v2 Fab (humanized) (Fab, V domains shown, not shown: small tags and cut ends)
# VH: QVQLQESGPGLVKPSETLSLTCTVSGFSLTSYGVHWVRQPPGKGLEWIGVIWAGGSTNYNPSLKSRVTISKDTSKNQFSLKLSSVTAADTAVYYCARDKRAPGKLYYGYPDYWGQGTTLTVSS
# VL: DIVMTQSPDSLAVSLGERATINCKSSESVEYYVTSLLQWYQQKPGQPPKLLIYAASNRESGVPDRFSGSGSGTDFTLTISSLQAEDVAVYYCQQTRKVPSTFGGGTKLEIKR
# notes: as for B2
# B5: huCD28_v3 Fab (humanized) (Fab, V domains shown, not shown: small tags and cut ends)
# VH: QVQLQESGPGLVKPSETLSLTCTVSGFSLTSYGVHWIRQPPGKGLEWLGVIWAGGSTNYNSSLKSRVTISKDTSKNQVFLKLSSVTADDTAVYYCARDKRAPGKLYYGYPDYWGQGTTLTVSS
# VL: DIVMTQSPDSLAVSLGERATINCRASESVEYYVTSLMQWYQQKPGQPPKLLIYAASNVESGVPARFSGSGSGTDFTLTISPLQAEDVAVYYCQQTRKVPSTFGGGTKLEIKR
# notes: as for B2
# Assays:
# [1] = molecular target: T1, recombinant CD28 antigen (extracellular domain, expressed in mammalian cells) (UniProt P10747 19-152, limits assumed); assay: SPR (Biacore), CD28 ECD on CM5 chip, Fab as analyte at 50 ug/mL, 1:1 binding mass transfer model
# T1 construct: extracellular domain; Immobilized on a CM5 chip by amine coupling; also called T-cell-specific surface glycoprotein CD28
# Description: (§1) Therefore, recombinant CD28 antigen (extracellular domain, expressed in mammalian cells) was immobilized on a CM5 chip by standard amine coupling. The Fab variants were used as analytes in HBS-EP buffer (0.01 M HEPES pH 7.4, 0.15 M NaCl, 3 mM EDTA, 0.005% v/v Surfactant P20) in a concentration of 50 μg/mL. Evaluation was conducted with the BIAeval Software using an 1:1 binding mass transfer model.
# [2] = molecular target: T1, recombinant CD28 antigen (extracellular …); assay: SPR (Biacore), CD28 ECD on CM5 chip, Fab as analyte
# Description: as §1
Binder,Kd [1] [nM],koff [1] [s⁻¹],kon [1] [M⁻¹ s⁻¹],"affinity [%] (by KD, chCD28 Fab set to 100%) [2]"
B1,32,0.032,1e+06,100
B2,53,0.021,400000,60
B3,42,0.08,1.9e+06,76
B4,92,0.055,600000,35
B5,52,0.026,500000,62
